In patent publication US20230322953A1 one finds Maximum MFI data, which are given here for one substance.

Experiment [1] addresses cynomolgus monkey CD3 (TCR/CD3 complex) on cynomolgus monkey T cells (cynomolgus monkey). As to the kind of experiment: flow cytometry (FACS) on cynomolgus monkey T cells, isotype control.
Experiment [2] deals with human CD3 (TCR/CD3 complex) on human T cells (human) (UniProt P07766). The experiment is described as follows: flow cytometry (FACS) on human T cells, Experiment 3, isotype control.
Experiment [3] has the same target. The experiment is described as follows: flow cytometry (FACS) on human T cells, Experiment 2, isotype control.

human CD3 (TCR/CD3 complex) on human T cells (human), sequence (P07766 23-207, one chain of several): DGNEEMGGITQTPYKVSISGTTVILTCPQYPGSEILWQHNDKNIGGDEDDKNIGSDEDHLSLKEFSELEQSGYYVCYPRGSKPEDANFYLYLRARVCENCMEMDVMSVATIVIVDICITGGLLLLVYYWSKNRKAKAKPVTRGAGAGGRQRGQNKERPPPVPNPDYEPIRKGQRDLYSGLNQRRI
cynomolgus monkey CD3 (TCR/CD3 complex) on cynomolgus monkey T cells (cynomolgus monkey), sequence (Q95LI5 22-198, one chain of several): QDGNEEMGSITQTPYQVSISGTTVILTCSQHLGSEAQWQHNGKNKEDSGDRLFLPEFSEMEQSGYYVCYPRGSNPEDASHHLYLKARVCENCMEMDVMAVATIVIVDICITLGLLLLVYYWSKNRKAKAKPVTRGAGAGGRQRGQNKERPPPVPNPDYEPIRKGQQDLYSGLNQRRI

With hIgG1 iso (CrownBio, #C0001) (antibody), the results for the Maximum MFI in experiment [1], in experiment [2] and in experiment [3] were 794 MFI, 3000 MFI and 12 MFI, respectively.
